The values below come from PMC3814720, “Pro-inflammatory cytokines can act as intracellular modulators of commensal bacterial virulence”.

The data set deals with TNF-α (human, UniProt P01375 77-233). Nature of the data set: EMSA; 5-20 uM TNF-α. Conditions: chain copies: 3; label: 32P 5'-end; blunt.
Chain of TNF-α (P01375 77-233): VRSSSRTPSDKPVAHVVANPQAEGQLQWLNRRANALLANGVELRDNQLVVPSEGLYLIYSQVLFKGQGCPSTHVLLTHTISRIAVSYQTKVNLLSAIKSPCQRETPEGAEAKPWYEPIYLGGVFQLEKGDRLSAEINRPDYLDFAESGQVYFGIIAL

B1: app internal region (dsDNA)
DNA 1: GTTTTTTACCAACAGGAGGCTCATTTGGCGACAGTGGCTCACCAATGTTTATCTATGATGCCCAAAAGCAAAAGTG
DNA 2: CACTTTTGCTTTTGGGCATCATAGATAAACATTGGTGAGCCACTGTCGCCAAATGAGCCTCCTGTTGGTAAAAAAC
Take B1: the binding result is “no binding”.
